Here are results for one protein from PMC13477270 (Nature structural & molecular biology, 2025).

The series deals with the molecule itself. Kind of series: SEC-MALS.

B1: miniTRIM37 RING–B-box-2–hcc B-box-2 mutant (other)
chain: MDEQSVESIAEVFRCFICMEKLRDARLCPHCSKLCCFSCIRRWLTEQRAQCPHCRAPLQLRELVNCRWAEEVTQQLDTLQLCSLTKHEENEKDKCENHHEKLSVFCWTCKKCICAQCAAWGGMHGGHTFKPLAEIYEQHVTKVNEEVAKLRRRLMELITERNQVAKRVPKAPPEEKEALIARGKALGEETELLESLLQEVEHQLRSCSKSELISKSSEILMMFQQVHRK
Turning to B1, the “stoichiometry N” value turned out to be 2.
